Assay [1] has as its target T1, circulating APOL1 in normal human serum (human, UniProt O14791 28-398).
T1 sequence (looked up): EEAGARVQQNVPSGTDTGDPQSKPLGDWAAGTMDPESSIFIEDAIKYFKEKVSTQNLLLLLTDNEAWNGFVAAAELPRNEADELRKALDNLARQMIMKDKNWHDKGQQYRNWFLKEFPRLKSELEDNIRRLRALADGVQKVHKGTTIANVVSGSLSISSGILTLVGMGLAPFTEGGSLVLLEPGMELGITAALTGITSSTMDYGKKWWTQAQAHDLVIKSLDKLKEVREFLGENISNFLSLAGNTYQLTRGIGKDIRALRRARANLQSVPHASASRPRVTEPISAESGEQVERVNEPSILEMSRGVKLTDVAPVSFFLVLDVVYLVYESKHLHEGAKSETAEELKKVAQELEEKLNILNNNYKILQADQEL
Put plainly: cell-based or functional assay.

The target in the next assay is T2, APOL6-myc-FLAG (human, UniProt Q9BWW8 1-343).
T2 construct: whole, on cells; In fixed, permeabilized transfected COS cells; untagged APOL6 in the western blots; not shown: C-terminal myc-FLAG tag
T2 sequence (looked up): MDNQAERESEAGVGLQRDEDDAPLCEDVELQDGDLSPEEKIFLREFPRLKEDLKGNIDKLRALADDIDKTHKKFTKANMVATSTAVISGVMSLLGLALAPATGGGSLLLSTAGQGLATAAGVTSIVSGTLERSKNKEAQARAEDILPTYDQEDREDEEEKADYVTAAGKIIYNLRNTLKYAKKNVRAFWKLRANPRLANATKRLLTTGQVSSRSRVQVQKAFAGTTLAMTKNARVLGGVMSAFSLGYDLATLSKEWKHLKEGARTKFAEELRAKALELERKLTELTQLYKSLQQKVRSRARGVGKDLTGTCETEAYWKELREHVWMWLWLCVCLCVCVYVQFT
The assay is described as follows: immunofluorescence on transfected COS cells; grade. The source says:
COS cells were transfected as in FIG. 31A except APOL1 and APOL2 were also C-terminally myc-FLAG tagged. Overlays of APOL with epitope tags: either mouse anti-FLAG-M2 or mouse anti-myc 9E10 for anti-APOL1 rabmabs; or rabbit anti-Myc 71D10 in conjunction with mouse anti-APOL1. Signals indicate the two antibodies overlap (i.e. anti-APOL1 cross-reacts with that APOL); signals (epitope tag only) indicate no cross-reactivity. Alexa647 anti-rabbit or mouse were used for the tags to rule out the possibility that any colocalization was a bleed-through artifact. Sparsely transfected areas were imaged to permit evaluation of background staining in adjacent untransfected cells—DAPI nuclear staining identifies both untransfected and transfected cell nuclei. […] Note that none of the antibodies cross-reacted with the more distantly related APOL6. *, APOL2-myc-FLAG is presumably misfolded, since it is not as cross-reactive as untagged APOL2 (compare FIG. 31A) with several antibodies. Commercial antibodies are Sigma HPA018885, Epitomics EPR2907 (2) (Epito) and Proteintech 11486-2-AP (Ptech).
Cells were plated on LabTekII (Nalge Nunc 154534) slides and fixed at 70-100% confluency. For mAb screening, cells were fixed/permeabilized for 5 min in −20° C. methanol (EMD MX0485-6). For all other experiments, cells were fixed in 3% paraformaldehyde in PBS (EMS 15710) for 20 mins at room temperature, quenched with 50 mM NH₄Cl in PBS for 10 mins, then permeabilized with 0.1% TX-100 in PBS for 4 mins or for 1h in saponin buffer [0.4% saponin (Sigma S7900), 1% bovine serum albumin (BSA; Sigma A2153), 2% fetal bovine serum (Seradigm) in PBS]. First antibodies (stored sterile at 4° C.) were applied for 1 h at room temperature, at 1 μg/ml for screening on transfected cells or at subsequently optimized concentrations for detecting endogenous APOL1. After 3×10 min washes in PBS (for Methanol or TX-100 protocols) or saponin buffer (saponin protocol), secondary antibodies were applied at 1.88 μg/ml for 1 h at room temperature, washed 3× and mounted under No. 1.5 coverslips in ProLong Gold with DAPI (4′,6-diamidino-2-phenylindole; Life Technologies P36931).

In assay [2] the target is T3, untagged APOL1-G0, KIK variant, transiently expressed (COS cells) (human, UniProt O14791 29-398).
T3 construct: Origene SC109941 clone with E150K, M228I, R255K
T3 chain: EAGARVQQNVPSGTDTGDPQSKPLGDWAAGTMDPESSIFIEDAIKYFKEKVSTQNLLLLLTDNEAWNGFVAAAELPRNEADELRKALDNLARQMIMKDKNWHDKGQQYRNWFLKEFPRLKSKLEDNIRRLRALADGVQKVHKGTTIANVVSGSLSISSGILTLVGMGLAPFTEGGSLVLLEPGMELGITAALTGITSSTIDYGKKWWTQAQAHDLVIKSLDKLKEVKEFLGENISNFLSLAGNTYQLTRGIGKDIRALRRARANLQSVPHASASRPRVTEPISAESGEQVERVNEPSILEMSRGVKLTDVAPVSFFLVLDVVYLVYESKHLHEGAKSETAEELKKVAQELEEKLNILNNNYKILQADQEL
The assay is described as follows: immunofluorescence on transfected COS cells, 1 µg/ml; grade.

In assay [3] the target is T4, endogenous human APOL1 (wild-type immortalized podocytes; also JHH-1 cells, kidney and liver tissue) (human, UniProt O14791 28-398).
T4 construct: whole, on cells; Cell or tissue and permeabilization are told under assay; also called podocyte APOL1; endogenous APOL1
T4 sequence (looked up): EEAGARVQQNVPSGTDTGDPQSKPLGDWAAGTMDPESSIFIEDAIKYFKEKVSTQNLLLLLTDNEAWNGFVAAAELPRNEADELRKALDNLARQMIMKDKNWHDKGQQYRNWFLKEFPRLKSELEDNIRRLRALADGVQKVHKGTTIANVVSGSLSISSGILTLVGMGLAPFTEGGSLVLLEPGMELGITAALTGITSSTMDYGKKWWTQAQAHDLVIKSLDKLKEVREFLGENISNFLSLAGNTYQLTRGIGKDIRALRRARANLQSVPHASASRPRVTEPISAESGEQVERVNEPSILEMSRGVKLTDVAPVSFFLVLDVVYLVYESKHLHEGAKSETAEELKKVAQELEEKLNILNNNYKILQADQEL
Put plainly: summary of the Examples: podocyte flow cytometry. Here is the method: Cells were harvested with 5 mM EDTA in PBS, washed once with growth media and twice with PBS. Approximately 0.5×10⁶/m1 of cells resuspended in PBS were incubated with anti-APOL1 antibodies for 1 h on ice. Following two PBS washes, 2 μg/ml of Alexa488 anti-mouse or anti-rabbit (Invitrogen A11029 and A21206, respectively) was used for 1 h on ice for detection. Cells were washed twice in PBS and resuspended in PBS with 1 μg/ml propidium iodide. Signals were read in a FACSCalibur3 (Becton Dickinson), with the exception of FIG. 8A and FIG. 14, which used a FACSCelesta, and data was analyzed using FlowJo v8.4.5. Mean fluorescence intensities were plotted in PRISM v7 after subtraction of secondary antibody alone background. For low pH experiments, cells were incubated with the antibodies in the presence of PBS pH 7.0 or PBS pH 5.5 for an hour on ice and detected with secondary antibodies at neutral pH.
Background: In flow cytometry, cells or beads pass a laser one at a time.

Assay [4] concerns the target T1, circulating APOL1 in normal human serum. The assay is described as follows: summary of the Examples: trypanolysis blocking as proxy for serum APOL1. The protocol:
The trypanolysis assay used herein to text specificity of antibodies for serum APOL1 is as follows. Trypanosoma brucei brucei were obtained from ATCC and cultured in HMI-9 media containing IMDM (Genentech), heat-inactivated (56° C. for 30 min) FBS (Seradigm IXL9/06807/GEN), 1% serum plus (Sigma 14008C), HMI-9 (Genentech) and 1% hypoxanthine (Genentech). Trypanosome lysis was performed by treating 1×10⁵ Trypanosomes with serial dilutions of NHS or recombinant APOL1 for 16 h in a total of 100 μl. Live cell read out was done by the Alamar Blue assay as per the manufacturer's protocol, (Thermo Fisher, DAL1100). Briefly 10 μl of Alamar Blue was added to each well, incubated at 37° C. for 4 h. Red fluorescence, indicating live trypanosomes, was measured on a SpectraMax® fluorimeter powered by SoftMAX® PRO with excitation at 530 nm and emission 590 nm. For the antibody blocking assay, 1% normal human serum was preincubated with 1-10 μg/ml of anti-APOL1 antibody or media at room temperature for 20 minutes followed by addition of trypanosomes. After 16 h, the Alamar Blue assay was performed as above and background values for media only were subtracted and % blocking calculated by normalizing to no antibody control.
Trypanosoma brucei brucei were obtained under MTA from ATCC and cultured in HMI-9 media containing IMDM (Genentech), heat-inactivated (56° C. for 30 min) FBS (Seradigm IXL9/06807/GEN), 1% serum plus (Sigma 14008C), HMI-9 (Genentech) and 1% hypoxanthine (Genentech). Trypanosome lysis was performed by treating 1×10⁵ Trypanosomes with serial dilutions of NHS or recombinant APOL1 for 16 h in a total of 100 μl. Live cell read out was done by the Alamar Blue assay as per the manufacturer's protocol (30) (Thermo Fisher, DAL1100). Briefly 10 μl of Alamar Blue was added to each well, incubated at 37° C. for 4 h. Red fluorescence, indicating live trypanosomes, was measured on a SpectraMax fluorimeter powered by SoftMAX PRO with excitation at 530 nm and emission 590 nm. For the antibody blocking assay, 1% normal human serum was preincubated with 1-10 μg/ml of anti-APOL1 antibody or media at room temperature for 20 mins followed by addition of trypanosomes.

B1: antibody 3.1C7 (antibody)
heavy: EVQLQQSGTVLSRPGASVKMSCKASGYTMTSYWMHWIKQRPGQGLEWIGAIYPGKSDIKYNQKFKDKAKLTAVTATSTAYMEINSLTNEDSAVYYCTNSIPFVYWGQGTLITVSAASTKGPSVYPLAPVCGDTTGSSVTLGCLVKGYFPEPVTLTWNSGSLSSGVHTFPAVLQSDLYTLSSSVTVTSSTWPSQSITCNVAHPASSTKVDKKIEPRGPTIKPCPPCKCPAPNAAGGPSVFIFPPKIKDVLMISLSPIVTCVVVDVSEDDPDVQISWFVNNVEVHTAQTQTHREDYNSTLRVVSALPIQHQDWMSGKEFKCKVNNKDLGAPIERTISKPKGSVRAPQVYVLPPPEEEMTKKQVTLTCMVTDFMPEDIYVEWTNNGKTELNYKNTEPVLDSDGSYFMYSKLRVEKKNWVERNSYSCSVVHEGLHNHHTTKSFSRTPGK
light: DIVMTQSPSSLTVTAGEKVTMSCKSSQSLLNSENQKKYLTWFQQKPGQPPKLLIYWTSTRYSGIPDRFTGSGSGTVFTLTISSVQADDLAVYYCQNDYSYPLTFGGGTKLEIKRADAAPTVSIFPPSSEQLTSGGASVVCFLNNFYPKDINVKWKIDGSERQNGVLNSWTDQDSKDSTYSMSSTLTLTKDEYERHNSYTCEATHKTSTSPIVKSFNRNEC
notes: Mouse mAb, cloned as murine IgG2a LALAPG; also called SRA-ID antibody 3.1C7
Consider B1, for which the “IC50 of blocking of serum APOL1-mediated trypanolysis (Alamar Blue)” value in assay [1] worked out at 1 nM. Also, the binding result with APOL6-myc-FLAG is reported as “no binding (tested: 1 µg/ml)”; in assay [2] it was “binds”.

B2: antibody 4.2C4 (antibody, V domains shown)
VH: QVQLQQSGPELVKPGASVKMSCKASGYTFTDYVISWVKQRTGQGLEWIGEMFPGSGTTYYTEKFRGKATLTADKSSNTAYMQLSSLTSEDSAVYFCARGTTADYWGQGTTLTVSS
VL: ENVLTQSPAIMSASLGEKVTMSCRASSSVNYMYWYQQKSDASPKLWIYYTSNLAPGVPARFSGSGSGNSYSLTISSMEGEDAATYYCQQFTSSPYTFGGGTKLEIKR
notes: Mouse mAb, cloned as murine IgG2a LALAPG
Take B2: the binding result in the assay with APOL6-myc-FLAG is “no binding (tested: 1 µg/ml)”; in assay [2] it was “binds”.

B3: rabbit monoclonal antibody 5.17H8 (antibody, V domains shown)
VH: QSLEESGGRLVTPGTPLTLTCTVSGIDLSSYAMGWVRQAPGKGLEWIGIISSSGSTHYASWAKGRFTISKTSTTVDLKITSPTTEDTATYFCARARAGSTYYTGYYFNLWGQGTLVTVSS
VL: AIEMTQTASPVSAAVGGTVTINCQASESIYSNLAWYQQKPGQRPKLLIYGASTLESGVPSRFKGSGSGTEYTLTISDLECDDAATYYCQSGYYGISAINNAFGGGTEVVVKG
notes: Rabbit mAb (Method #5), recombinant; also called rabmab 5.17H8
On to B3, for which, in the assay with APOL6-myc-FLAG, the binding result is “no binding (tested: 1 µg/ml)”.

B4: antibody 3.4G10 (antibody, V domains shown)
VH: DVQLQESGPDLVKPSQSLSLTCTVTGYSITSGESWHWIRHFPGNELEWMGFIHYSGSANYNPSLKSRISITRDTSKNQFFLQLLSVTTDDTATYYCARSVYNYDGAWFPYWGQGTLVTVSA
VL: QIVLTQSPVIMSASPGERVTLTCSASSSVSSSYLNWYQLKPGSSPKVWIYRTSNLASGVPARFSGSGSGTSYSLTISSMEAEDAASYFCHQWSAYPPTFGGGTKLEIKR
notes: as for B2
In the case of B4, the binding result in assay [3] and in assay [4] was “binds” each time.

B5: antibody 3.2C11 (antibody, V domains shown)
VH: QVQLQQSGAELVRPGASVKLSCKALGYTFTDYEIHWVKQTPVHGLEWIGGIHPGNGGTAYNPKFKGKATLTADTSSSTASMELSSLTSEDSAVYYCTDWVDYWGQGTTLTVSS
VL: DVVVTQTPLSLPVNFGDQVSISCRSSQSLVNRHGITYLSWYLHKPGQSPQLLIYEISNRFSGVPDRFSGSGSGTDFTLKISTIKPEDLGMYYCFQGTHQPFTFGGGTKLEIKR
notes: as for B2
With B5, the binding result in assay [4] was “binds”.

The record behind these values is patent publication US20230071609A1 (Genentech, published 2023).
